Laboratory results taken from patent publication US6896881.

Experiments:
[1] = target: human IGF1 receptor on 3T3-hIGF1r cells (human) (UniProt P08069); experiment: flow cytometry on 3T3-hIGF1r cells; 5.7 is the secondary antibody alone
[2] = target: human EGF receptor on CHO-hEGFr cells (human) (UniProt P00533); experiment: flow cytometry on CHO-hEGFr cells; 3.9 is the secondary antibody alone

Sequence of UniProt P08069 (P08069 31-1367): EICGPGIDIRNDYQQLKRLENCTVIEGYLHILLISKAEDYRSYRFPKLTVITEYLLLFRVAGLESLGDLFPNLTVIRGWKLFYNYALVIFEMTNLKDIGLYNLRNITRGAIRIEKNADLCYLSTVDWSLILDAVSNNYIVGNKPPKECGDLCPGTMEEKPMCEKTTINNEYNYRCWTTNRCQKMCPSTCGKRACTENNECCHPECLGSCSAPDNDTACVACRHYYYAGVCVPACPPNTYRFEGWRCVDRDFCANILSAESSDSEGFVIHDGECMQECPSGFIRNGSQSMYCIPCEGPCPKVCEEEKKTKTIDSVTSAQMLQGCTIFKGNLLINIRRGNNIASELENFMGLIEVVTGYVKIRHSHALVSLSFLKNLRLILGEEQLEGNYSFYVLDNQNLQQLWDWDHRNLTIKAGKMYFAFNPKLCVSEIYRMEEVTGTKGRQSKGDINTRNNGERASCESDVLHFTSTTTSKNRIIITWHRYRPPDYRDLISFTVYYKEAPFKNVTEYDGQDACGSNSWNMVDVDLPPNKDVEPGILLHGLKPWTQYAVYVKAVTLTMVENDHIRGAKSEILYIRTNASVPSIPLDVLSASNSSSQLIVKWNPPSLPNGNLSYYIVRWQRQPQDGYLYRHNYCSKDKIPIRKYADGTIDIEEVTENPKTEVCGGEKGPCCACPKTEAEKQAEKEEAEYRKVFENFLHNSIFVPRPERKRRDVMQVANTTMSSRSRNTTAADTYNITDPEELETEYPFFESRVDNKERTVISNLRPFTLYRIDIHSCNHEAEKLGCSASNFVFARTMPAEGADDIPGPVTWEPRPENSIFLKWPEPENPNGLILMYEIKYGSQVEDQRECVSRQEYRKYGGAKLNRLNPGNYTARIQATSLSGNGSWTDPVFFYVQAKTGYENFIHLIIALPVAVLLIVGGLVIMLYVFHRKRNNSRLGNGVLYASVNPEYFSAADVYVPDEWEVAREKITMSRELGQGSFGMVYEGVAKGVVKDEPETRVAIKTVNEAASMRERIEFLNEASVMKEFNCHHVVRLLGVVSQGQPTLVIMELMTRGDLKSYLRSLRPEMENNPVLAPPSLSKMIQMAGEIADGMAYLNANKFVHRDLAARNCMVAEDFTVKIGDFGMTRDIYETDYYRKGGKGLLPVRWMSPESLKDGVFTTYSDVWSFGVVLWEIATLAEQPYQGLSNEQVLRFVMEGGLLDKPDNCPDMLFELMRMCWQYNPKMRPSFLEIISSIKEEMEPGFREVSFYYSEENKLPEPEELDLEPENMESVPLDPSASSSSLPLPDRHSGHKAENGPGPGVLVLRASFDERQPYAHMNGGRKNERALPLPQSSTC

| Substance | mean fluorescence [1] | mean fluorescence [2] |
| --- | --- | --- |
| monoclonal anti-hIGF1r antibody clone 33255.111 (R&D Systems, MAB391) | 251 |  |
| monoclonal anti-hEGFr antibody clone 528 (Santa Cruz, sc-120) |  | 466 |
